Measurements: patent US20210032299A1 (Eli Lilly, published 2021)
Starred links: 1 amine or outer side, 2 acyl side, 3 side chain; linkers in the order of their positions; H or OH if unused. Non-standard residues stand in square brackets, D forms with d. Groups on a side chain read outwards from the residue. No end group written: not given here. *: point of attachment. C20 diacid = O=C(O)CCCCCCCCCCCCCCCCCCC(=O)*; C18 diacid = O=C(O)CCCCCCCCCCCCCCCCC(=O)*; αMePhe(2-F) = C[C@](N)(Cc1ccccc1F)C(=O)O; γGlu = O=C(O)[C@H](CCC(=O)[*:2])N[*:1]; αMeY = C[C@](N)(Cc1ccc(O)cc1)C(=O)O; 4Pal = N[C@@H](Cc1ccncc1)C(=O)O; αMeL = CC(C)C[C@](C)(N)C(=O)O; AEEA = NCCOCCOCC(=O)O; Aib = CC(C)(N)C(=O)O

How the values were obtained:
Experiment in all cases: cell-based or functional assay
[1] = molecular target: T1, human glucose-dependent insulinotropic peptide receptor (human, UniProt P48546 22-466)
T1 sequence (looked up): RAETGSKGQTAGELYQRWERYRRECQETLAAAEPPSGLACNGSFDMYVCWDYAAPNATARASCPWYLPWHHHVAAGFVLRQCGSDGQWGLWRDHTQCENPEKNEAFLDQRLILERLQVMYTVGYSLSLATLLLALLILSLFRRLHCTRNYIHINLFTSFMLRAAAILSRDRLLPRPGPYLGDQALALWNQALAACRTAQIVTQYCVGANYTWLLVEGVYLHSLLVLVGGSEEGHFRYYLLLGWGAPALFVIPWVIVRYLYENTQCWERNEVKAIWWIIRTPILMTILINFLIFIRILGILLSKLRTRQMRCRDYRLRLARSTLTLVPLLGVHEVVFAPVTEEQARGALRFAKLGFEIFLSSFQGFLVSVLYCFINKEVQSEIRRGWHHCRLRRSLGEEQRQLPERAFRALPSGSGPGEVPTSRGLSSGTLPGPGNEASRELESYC

human GLP-1 receptor = human GLP-1 receptor (human, UniProt P43220 24-463)
human glucagon receptor = human glucagon receptor (human, UniProt P47871 26-477)
Chain of human glucagon receptor (P47871 26-477): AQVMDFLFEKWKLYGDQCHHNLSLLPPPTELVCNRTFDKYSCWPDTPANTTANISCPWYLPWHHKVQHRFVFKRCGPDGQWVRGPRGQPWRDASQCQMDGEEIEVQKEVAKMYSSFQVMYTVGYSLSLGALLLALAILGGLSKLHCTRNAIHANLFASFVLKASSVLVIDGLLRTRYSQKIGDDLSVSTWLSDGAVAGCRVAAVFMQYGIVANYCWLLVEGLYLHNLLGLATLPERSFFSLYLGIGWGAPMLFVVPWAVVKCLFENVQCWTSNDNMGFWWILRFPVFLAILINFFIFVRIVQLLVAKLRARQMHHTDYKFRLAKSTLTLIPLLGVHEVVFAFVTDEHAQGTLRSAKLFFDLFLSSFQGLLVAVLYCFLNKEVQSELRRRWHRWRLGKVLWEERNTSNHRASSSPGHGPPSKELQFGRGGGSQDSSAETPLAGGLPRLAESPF

B1: Example 93 (peptide)
peptide: Y[dA]EGTFISDYSILLDKIAQ[Aib]DFVNWK([AEEA-AEEA-γGlu-C18 diacid])LAQGPSSGAPPPS-NH2
modifications: N-terminus assumed
SMILES: CC[C@H](C)[C@H](NC(=O)[C@H](CCCCN)NC(=O)[C@H](CC(=O)O)NC(=O)[C@H](CC(C)C)NC(=O)[C@H](CC(C)C)NC(=O)[C@@H](NC(=O)[C@H](CO)NC(=O)[C@H](Cc1ccc(O)cc1)NC(=O)[C@H](CC(=O)O)NC(=O)[C@H](CO)NC(=O)[C@@H](NC(=O)[C@H](Cc1ccccc1)NC(=O)[C@@H](NC(=O)CNC(=O)[C@H](CCC(=O)O)NC(=O)[C@@H](C)NC(=O)[C@@H](N)Cc1ccc(O)cc1)[C@@H](C)O)[C@@H](C)CC)[C@@H](C)CC)C(=O)N[C@@H](C)C(=O)N[C@@H](CCC(N)=O)C(=O)NC(C)(C)C(=O)N[C@@H](CC(=O)O)C(=O)N[C@@H](Cc1ccccc1)C(=O)N[C@H](C(=O)N[C@@H](CC(N)=O)C(=O)N[C@@H](Cc1c[nH]c2ccccc12)C(=O)N[C@@H](CCCCNC(=O)COCCOCCNC(=O)COCCOCCNC(=O)CC[C@H](NC(=O)CCCCCCCCCCCCCCCCC(=O)O)C(=O)O)C(=O)N[C@@H](CC(C)C)C(=O)N[C@@H](C)C(=O)N[C@@H](CCC(N)=O)C(=O)NCC(=O)N1CCC[C@H]1C(=O)N[C@@H](CO)C(=O)N[C@@H](CO)C(=O)NCC(=O)N[C@@H](C)C(=O)N1CCC[C@H]1C(=O)N1CCC[C@H]1C(=O)N1CCC[C@H]1C(=O)N[C@@H](CO)C(N)=O)C(C)C
B1 was tested, and the “hGIPR cAMP Rel EC50” value [1] was 0.00482 nM, the “hGLP1R cAMP Rel EC50” value (human GLP-1 receptor) was 884 nM and the “hGcgR cAMP Rel EC50” value (human glucagon receptor) was greater than 5000 nM.

B2: Example 90 (peptide)
peptide: Y[Aib]EGTFISDYSI[αMeL]LDKK([AEEA-AEEA-γGlu-C20 diacid])HQ[Aib]DFVE[αMeY]LLEAGPSSGAPPPS-NH2
modifications: N-terminus assumed
SMILES: CC[C@H](C)[C@H](NC(=O)[C@H](Cc1ccccc1)NC(=O)[C@@H](NC(=O)CNC(=O)[C@H](CCC(=O)O)NC(=O)C(C)(C)NC(=O)[C@@H](N)Cc1ccc(O)cc1)[C@@H](C)O)C(=O)N[C@@H](CO)C(=O)N[C@@H](CC(=O)O)C(=O)N[C@@H](Cc1ccc(O)cc1)C(=O)N[C@@H](CO)C(=O)N[C@H](C(=O)N[C@@](C)(CC(C)C)C(=O)N[C@@H](CC(C)C)C(=O)N[C@@H](CC(=O)O)C(=O)N[C@@H](CCCCN)C(=O)N[C@@H](CCCCNC(=O)COCCOCCNC(=O)COCCOCCNC(=O)CC[C@H](NC(=O)CCCCCCCCCCCCCCCCCCC(=O)O)C(=O)O)C(=O)N[C@@H](Cc1c[nH]cn1)C(=O)N[C@@H](CCC(N)=O)C(=O)NC(C)(C)C(=O)N[C@@H](CC(=O)O)C(=O)N[C@@H](Cc1ccccc1)C(=O)N[C@H](C(=O)N[C@@H](CCC(=O)O)C(=O)N[C@@](C)(Cc1ccc(O)cc1)C(=O)N[C@@H](CC(C)C)C(=O)N[C@@H](CC(C)C)C(=O)N[C@@H](CCC(=O)O)C(=O)N[C@@H](C)C(=O)NCC(=O)N1CCC[C@H]1C(=O)N[C@@H](CO)C(=O)N[C@@H](CO)C(=O)NCC(=O)N[C@@H](C)C(=O)N1CCC[C@H]1C(=O)N1CCC[C@H]1C(=O)N1CCC[C@H]1C(=O)N[C@@H](CO)C(N)=O)C(C)C)[C@@H](C)CC
With B2 the “hGIPR cAMP Rel EC50” value [1] was 0.0272 nM, the “hGLP1R cAMP Rel EC50” value (human GLP-1 receptor) was greater than 5000 nM and the “hGcgR cAMP Rel EC50” value (human glucagon receptor) was greater than 5000 nM.

B3: Example 121 (peptide)
peptide: Y[Aib]EGT[αMePhe(2-F)]ISDYSILLDKIHQ[Aib]DFVE[4Pal]K([AEEA-AEEA-γGlu-C20 diacid])LEQGPSSGAPPPS-NH2
modifications: N-terminus assumed
SMILES: CC[C@H](C)[C@H](NC(=O)[C@H](CO)NC(=O)[C@H](Cc1ccc(O)cc1)NC(=O)[C@H](CC(=O)O)NC(=O)[C@H](CO)NC(=O)[C@@H](NC(=O)[C@](C)(Cc1ccccc1F)NC(=O)[C@@H](NC(=O)CNC(=O)[C@H](CCC(=O)O)NC(=O)C(C)(C)NC(=O)[C@@H](N)Cc1ccc(O)cc1)[C@@H](C)O)[C@@H](C)CC)C(=O)N[C@@H](CC(C)C)C(=O)N[C@@H](CC(C)C)C(=O)N[C@@H](CC(=O)O)C(=O)N[C@@H](CCCCN)C(=O)N[C@H](C(=O)N[C@@H](Cc1c[nH]cn1)C(=O)N[C@@H](CCC(N)=O)C(=O)NC(C)(C)C(=O)N[C@@H](CC(=O)O)C(=O)N[C@@H](Cc1ccccc1)C(=O)N[C@H](C(=O)N[C@@H](CCC(=O)O)C(=O)N[C@@H](Cc1ccncc1)C(=O)N[C@@H](CCCCNC(=O)COCCOCCNC(=O)COCCOCCNC(=O)CC[C@H](NC(=O)CCCCCCCCCCCCCCCCCCC(=O)O)C(=O)O)C(=O)N[C@@H](CC(C)C)C(=O)N[C@@H](CCC(=O)O)C(=O)N[C@@H](CCC(N)=O)C(=O)NCC(=O)N1CCC[C@H]1C(=O)N[C@@H](CO)C(=O)N[C@@H](CO)C(=O)NCC(=O)N[C@@H](C)C(=O)N1CCC[C@H]1C(=O)N1CCC[C@H]1C(=O)N1CCC[C@H]1C(=O)N[C@@H](CO)C(N)=O)C(C)C)[C@@H](C)CC
In the case of B3, the “hGIPR cAMP Rel EC50” value [1] is reported as 0.0196 nM, the “hGLP1R cAMP Rel EC50” value (human GLP-1 receptor) is reported as greater than 5000 nM and the “hGcgR cAMP Rel EC50” value (human glucagon receptor) is reported as greater than 5000 nM.

B4: Example 91 (peptide)
peptide: Y[Aib]EGTFISDYSI[αMeL]LDKK([AEEA-AEEA-γGlu-C20 diacid])HQ[Aib]DFVE[αMeY]LLEGGPSSGAPPPS-NH2
modifications: N-terminus assumed
SMILES: CC[C@H](C)[C@H](NC(=O)[C@H](Cc1ccccc1)NC(=O)[C@@H](NC(=O)CNC(=O)[C@H](CCC(=O)O)NC(=O)C(C)(C)NC(=O)[C@@H](N)Cc1ccc(O)cc1)[C@@H](C)O)C(=O)N[C@@H](CO)C(=O)N[C@@H](CC(=O)O)C(=O)N[C@@H](Cc1ccc(O)cc1)C(=O)N[C@@H](CO)C(=O)N[C@H](C(=O)N[C@@](C)(CC(C)C)C(=O)N[C@@H](CC(C)C)C(=O)N[C@@H](CC(=O)O)C(=O)N[C@@H](CCCCN)C(=O)N[C@@H](CCCCNC(=O)COCCOCCNC(=O)COCCOCCNC(=O)CC[C@H](NC(=O)CCCCCCCCCCCCCCCCCCC(=O)O)C(=O)O)C(=O)N[C@@H](Cc1c[nH]cn1)C(=O)N[C@@H](CCC(N)=O)C(=O)NC(C)(C)C(=O)N[C@@H](CC(=O)O)C(=O)N[C@@H](Cc1ccccc1)C(=O)N[C@H](C(=O)N[C@@H](CCC(=O)O)C(=O)N[C@@](C)(Cc1ccc(O)cc1)C(=O)N[C@@H](CC(C)C)C(=O)N[C@@H](CC(C)C)C(=O)N[C@@H](CCC(=O)O)C(=O)NCC(=O)NCC(=O)N1CCC[C@H]1C(=O)N[C@@H](CO)C(=O)N[C@@H](CO)C(=O)NCC(=O)N[C@@H](C)C(=O)N1CCC[C@H]1C(=O)N1CCC[C@H]1C(=O)N1CCC[C@H]1C(=O)N[C@@H](CO)C(N)=O)C(C)C)[C@@H](C)CC
In the case of B4, the “hGIPR cAMP Rel EC50” value [1] is reported as 0.0321 nM, the “hGLP1R cAMP Rel EC50” value (human GLP-1 receptor) is reported as 530 nM and the “hGcgR cAMP Rel EC50” value (human glucagon receptor) is reported as 289 nM.

B5: Example 89 (peptide)
peptide: Y[Aib]EGTLISDYSI[αMeL]LDKK([AEEA-AEEA-γGlu-C20 diacid])HQ[Aib]DFVE[4Pal]LLEAGPSSGAPPPS-NH2
modifications: N-terminus assumed
SMILES: CC[C@H](C)[C@H](NC(=O)[C@H](CC(C)C)NC(=O)[C@@H](NC(=O)CNC(=O)[C@H](CCC(=O)O)NC(=O)C(C)(C)NC(=O)[C@@H](N)Cc1ccc(O)cc1)[C@@H](C)O)C(=O)N[C@@H](CO)C(=O)N[C@@H](CC(=O)O)C(=O)N[C@@H](Cc1ccc(O)cc1)C(=O)N[C@@H](CO)C(=O)N[C@H](C(=O)N[C@@](C)(CC(C)C)C(=O)N[C@@H](CC(C)C)C(=O)N[C@@H](CC(=O)O)C(=O)N[C@@H](CCCCN)C(=O)N[C@@H](CCCCNC(=O)COCCOCCNC(=O)COCCOCCNC(=O)CC[C@H](NC(=O)CCCCCCCCCCCCCCCCCCC(=O)O)C(=O)O)C(=O)N[C@@H](Cc1c[nH]cn1)C(=O)N[C@@H](CCC(N)=O)C(=O)NC(C)(C)C(=O)N[C@@H](CC(=O)O)C(=O)N[C@@H](Cc1ccccc1)C(=O)N[C@H](C(=O)N[C@@H](CCC(=O)O)C(=O)N[C@@H](Cc1ccncc1)C(=O)N[C@@H](CC(C)C)C(=O)N[C@@H](CC(C)C)C(=O)N[C@@H](CCC(=O)O)C(=O)N[C@@H](C)C(=O)NCC(=O)N1CCC[C@H]1C(=O)N[C@@H](CO)C(=O)N[C@@H](CO)C(=O)NCC(=O)N[C@@H](C)C(=O)N1CCC[C@H]1C(=O)N1CCC[C@H]1C(=O)N1CCC[C@H]1C(=O)N[C@@H](CO)C(N)=O)C(C)C)[C@@H](C)CC
For B5, the “hGIPR cAMP Rel EC50” value [1] was 0.00687 nM, the “hGLP1R cAMP Rel EC50” value (human GLP-1 receptor) was greater than 5000 nM and the “hGcgR cAMP Rel EC50” value (human glucagon receptor) was greater than 5000 nM.

B6: Example 92 (peptide)
peptide: Y[Aib]EGTFISDYSI[αMeL]LDKIHQ[Aib]DFVEYK([AEEA-AEEA-γGlu-C20 diacid])LEQGPSSGAPPPS-NH2
modifications: N-terminus assumed
SMILES: CC[C@H](C)[C@H](NC(=O)[C@H](CCCCN)NC(=O)[C@H](CC(=O)O)NC(=O)[C@H](CC(C)C)NC(=O)[C@](C)(CC(C)C)NC(=O)[C@@H](NC(=O)[C@H](CO)NC(=O)[C@H](Cc1ccc(O)cc1)NC(=O)[C@H](CC(=O)O)NC(=O)[C@H](CO)NC(=O)[C@@H](NC(=O)[C@H](Cc1ccccc1)NC(=O)[C@@H](NC(=O)CNC(=O)[C@H](CCC(=O)O)NC(=O)C(C)(C)NC(=O)[C@@H](N)Cc1ccc(O)cc1)[C@@H](C)O)[C@@H](C)CC)[C@@H](C)CC)C(=O)N[C@@H](Cc1c[nH]cn1)C(=O)N[C@@H](CCC(N)=O)C(=O)NC(C)(C)C(=O)N[C@@H](CC(=O)O)C(=O)N[C@@H](Cc1ccccc1)C(=O)N[C@H](C(=O)N[C@@H](CCC(=O)O)C(=O)N[C@@H](Cc1ccc(O)cc1)C(=O)N[C@@H](CCCCNC(=O)COCCOCCNC(=O)COCCOCCNC(=O)CC[C@H](NC(=O)CCCCCCCCCCCCCCCCCCC(=O)O)C(=O)O)C(=O)N[C@@H](CC(C)C)C(=O)N[C@@H](CCC(=O)O)C(=O)N[C@@H](CCC(N)=O)C(=O)NCC(=O)N1CCC[C@H]1C(=O)N[C@@H](CO)C(=O)N[C@@H](CO)C(=O)NCC(=O)N[C@@H](C)C(=O)N1CCC[C@H]1C(=O)N1CCC[C@H]1C(=O)N1CCC[C@H]1C(=O)N[C@@H](CO)C(N)=O)C(C)C
B6 was tested, and the “hGIPR cAMP Rel EC50” value [1] was 0.0191 nM, the “hGLP1R cAMP Rel EC50” value (human GLP-1 receptor) was greater than 5000 nM and the “hGcgR cAMP Rel EC50” value (human glucagon receptor) was greater than 5000 nM.
